The target of experiment [1] is SARS-COV-2 Spike Omicron BA.2 (on pVSV-Luc-SARS-COV-2-S pseudovirus) (SARS-COV-2) (UniProt P0DTC2).
Experiment [2] has as its target SARS-COV-2 Spike Omicron BA.1 (on pVSV-Luc-SARS-COV-2-S pseudovirus) (SARS-COV-2) (UniProt P0DTC2).

Regarding “ACE2 v2.4 (615)-Fc (IgG) (from UniProt Q9BYF1) (Fc fusion)”, the results for the IC50 (read off the curve) in experiment [1] and in experiment [2] were 0.04 nM and 0.02 nM, respectively.

Source of the values: patent publication US20240307512A1.
